Experimental data taken from patent publication US11844843 (DYNE THERAPEUTICS, dated 2023).

T1: recombinant cynomolgus monkey (Macaca fascicularis) TfR1 (cynomolgus monkey (Macaca fascicularis), UniProt Q5RDH6 87-760 (Pongo abelii entry), limits assumed)
T1 construct: Recombinant protein; also called cTfR1; cyTfR1
T1 chain: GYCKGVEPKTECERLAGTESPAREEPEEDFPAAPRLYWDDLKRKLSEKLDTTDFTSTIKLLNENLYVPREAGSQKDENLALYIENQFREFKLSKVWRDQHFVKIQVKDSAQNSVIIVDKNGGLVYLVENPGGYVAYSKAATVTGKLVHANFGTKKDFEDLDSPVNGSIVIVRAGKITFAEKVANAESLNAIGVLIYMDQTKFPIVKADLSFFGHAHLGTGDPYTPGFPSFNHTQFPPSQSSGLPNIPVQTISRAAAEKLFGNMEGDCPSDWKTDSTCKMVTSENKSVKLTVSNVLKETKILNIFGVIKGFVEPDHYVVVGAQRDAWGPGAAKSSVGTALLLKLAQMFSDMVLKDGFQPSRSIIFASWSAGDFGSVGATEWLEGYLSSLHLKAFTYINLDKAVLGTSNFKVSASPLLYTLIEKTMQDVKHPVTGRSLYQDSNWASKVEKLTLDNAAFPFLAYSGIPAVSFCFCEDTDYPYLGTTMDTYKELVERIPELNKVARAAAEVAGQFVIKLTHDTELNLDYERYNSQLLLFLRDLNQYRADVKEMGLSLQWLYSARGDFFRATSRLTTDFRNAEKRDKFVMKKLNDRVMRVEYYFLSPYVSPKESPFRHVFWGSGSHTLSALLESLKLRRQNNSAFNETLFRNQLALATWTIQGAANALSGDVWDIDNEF


Key:
[1] = target: T2, recombinant human TfR1 (transferrin receptor protein 1) (human, UniProt P02786 89-760); test: Biacore, d0; TfR1 species not stated
T2 construct: Recombinant protein in SPR and ELISA; they were assigned to this molecule; also called hTfR1; huTfR1
T2 sequence (P02786 89-760 limits assumed): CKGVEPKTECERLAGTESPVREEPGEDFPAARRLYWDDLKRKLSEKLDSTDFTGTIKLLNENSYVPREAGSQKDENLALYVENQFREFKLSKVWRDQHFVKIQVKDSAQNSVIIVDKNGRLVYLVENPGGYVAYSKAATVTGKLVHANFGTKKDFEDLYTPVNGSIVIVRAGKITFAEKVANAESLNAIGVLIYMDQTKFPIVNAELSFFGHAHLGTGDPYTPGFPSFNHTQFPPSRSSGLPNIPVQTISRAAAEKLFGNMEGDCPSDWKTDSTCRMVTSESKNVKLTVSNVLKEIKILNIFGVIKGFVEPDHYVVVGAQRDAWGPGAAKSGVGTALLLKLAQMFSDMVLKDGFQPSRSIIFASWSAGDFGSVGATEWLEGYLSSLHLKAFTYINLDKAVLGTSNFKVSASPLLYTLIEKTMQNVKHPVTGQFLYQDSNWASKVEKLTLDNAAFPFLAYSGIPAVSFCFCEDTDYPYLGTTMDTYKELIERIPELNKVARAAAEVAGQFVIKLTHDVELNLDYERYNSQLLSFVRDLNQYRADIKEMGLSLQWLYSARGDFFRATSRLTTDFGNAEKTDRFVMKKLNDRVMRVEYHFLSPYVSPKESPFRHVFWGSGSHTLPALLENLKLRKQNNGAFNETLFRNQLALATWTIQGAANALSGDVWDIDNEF

[2] = target: T1, recombinant cynomolgus monkey (Macaca …); test: ELISA, recombinant TfR1 coated, unconjugated Fab (row 'Fab binding affinity ELISA')
[3] = target: T2, recombinant human TfR1 (transferrin …); test: as above
[4] = target: T1, recombinant cynomolgus monkey (Macaca …); test: Table 14, unconjugated Fab, d0; method not named (values equal ELISA row of Table 13)
[5] = target: T2, recombinant human TfR1 (transferrin …); test: as above
[6] = target: T2, recombinant human TfR1 (transferrin …); test: Biacore, d25; TfR1 species not stated
[7] = target: T2, recombinant human TfR1 (transferrin …); test: kinetic analysis (Biacore), Table 7; TfR1 species not stated
[8] = target: T1, recombinant cynomolgus monkey (Macaca …); test: Table 14, unconjugated Fab, d9 (after 9 days at 40 C); method not named
[9] = target: T2, recombinant human TfR1 (transferrin …); test: as above
[10] = target: T1, recombinant cynomolgus monkey (Macaca …); test: ELISA, recombinant TfR1 coated, Fab-ASO300 conjugate (row 'Conjugate binding affinity ELISA')
[11] = target: T2, recombinant human TfR1 (transferrin …); test: as above

Binder | Kd [1] | EC50 [2] | EC50 [3] | Binding affinity [4] | Binding affinity [5] | Kd [6] | Kd [7] | Binding affinity [8] | Binding affinity [9] | EC50 [10] | EC50 [11] | koff [7] | kon [7]
humanized anti-TfR Fab 3A4 VH3/Vκ4 (Fab, V domains shown, also called 3A4 (VH3/Vk4)) VH: EVQLVQSGSELKKPGASVKVSCTASGFNIKDDYMYWVRQPPGKGLEWIGWIDPENGDTEYASKFQDRVTVTADTSTNTAYMELSSLRSEDTAVYYCTLWLRRGLDYWGQGTLVTVSS VL: DIVMTQSPLSLPVTPGEPASISCRSSKSLLHSNGYTYLFWFQQRPGQSPRLLIYRMSNLASGVPDRFSGSGSGTDFTLKISRVEAEDVGVYYCMQHLEYPFTFGGGTKVEIKR | 1.5 nM | 122 nM | 1.5 nM | 122 nM | 1.5 nM | 1.35 nM | 1.5 nM | 878 nM | 0.46 nM | – | – | – | –
conjugate of humanized anti-TfR Fab 5H12 VH5 (C33Y)/Vκ3 with DMPK-targeting oligonucleotide ASO300 (Fab, V domains shown, oligonucleotide ASO300 conjugated to the Fab via linker; residue and chain not stated, also called 5H12 (VH5-C33Y/Vk3) conjugate) VH: QVQLVQSGAEVKKPGASVKVSCKASGYSFTDYYINWVRQAPGQGLEWMGWIYPGSGNTRYSERFKGRVTITRDTSASTAYMELSSLRSEDTAVYYCAREDYYPYHGMDYWGQGTLVTVSS VL: DIVLTQSPDSLAVSLGERATINCRASESVDGYDNSFMHWYQQKPGQPPKLLIFRASNLESGVPDRFSGSGSRTDFTLTISSLQAEDVAVYYCQQSSEDPWTFGQGTKLEIKR | – | – | – | – | – | – | – | – | – | 2.3 nM | 33.4 nM | – | –

The remaining binders from weak to strong by Kd [1], led by results:

Kd [1] | EC50 [2] | EC50 [3] | Binding affinity [4] | Binding affinity [5] | Kd [6] | Kd [7] | Binding affinity [8] | Binding affinity [9] | EC50 [10] | EC50 [11] | koff [7] | kon [7] | Binder
0.991 nM | 3.5 nM | 6 nM | 3.5 nM | 6 nM | 3.01 nM | 0.991 nM | 0.63 nM | 92.3 nM | – | – | 0.000672 s⁻¹ | 678000 M⁻¹ s⁻¹ | humanized anti-TfR Fab 5H12 VH5 (C33D)/Vκ4 (Fab, V domains shown, also called 5H12 (VH5-C33D/Vk4)) VH: QVQLVQSGAEVKKPGASVKVSCKASGYSFTDYDINWVRQAPGQGLEWMGWIYPGSGNTRYSERFKGRVTITRDTSASTAYMELSSLRSEDTAVYYCAREDYYPYHGMDYWGQGTLVTVSS VL: DIVMTQSPDSLAVSLGERATINCRASESVDGYDNSFMHWYQQKPGQPPKLLIFRASNLESGVPDRFSGSGSGTDFTLTISSLQAEDVAVYYCQQSSEDPWTFGQGTKLEIKR
0.396 nM | 1.4 nM | 0.4 nM | 1.4 nM | 0.4 nM | 0.51 nM | 0.396 nM | 5.01 nM | 0.5 nM | – | – | 9.98e-05 s⁻¹ | 252000 M⁻¹ s⁻¹ | humanized anti-TfR Fab 3M12 VH4/Vκ2 (Fab, V domains shown, also called 3M12 (VH4/Vk2)) VH: QVQLQESGPGLVKPSQTLSLTCTVTGYSITSGYYWNWIRQPPGKGLEWIGYITFDGANNYNPSLKNRVSISRDTSKNQFSLKLSSVTAEDTATYYCTRSSYDYDVLDYWGQGTTVTVSS VL: DIQMTQSPSSLSASVGDRVTITCRASQDISNFLNWYQQKPGQPVKLLIYYTSRLHSGVPSRFSGSGSGTDFTLTISSLQPEDFATYFCQQGHTLPYTFGQGTKLEIKR
0.345 nM | 4.7 nM | 0.6 nM | 4.7 nM | 0.6 nM | 0.515 nM | 0.345 nM | 15.6 nM | 1.49 nM | – | – | 8.34e-05 s⁻¹ | 242000 M⁻¹ s⁻¹ | humanized anti-TfR Fab 3M12 VH3/Vκ3 (Fab, V domains shown, also called 3M12 (VH3/Vk3)) VH: QVQLQESGPGLVKPSQTLSLTCSVTGYSITSGYYWNWIRQPPGKGLEWMGYITFDGANNYNPSLKNRVSISRDTSKNQFSLKLSSVTAEDTATYYCTRSSYDYDVLDYWGQGTTVTVSS VL: DIQMTQSPSSLSASVGDRVTITCRASQDISNFLNWYQQKPGQPVKLLIYYTSRLHSGVPSRFSGSGSGTDFTLTISSLQPEDFATYYCQQGHTLPYTFGQGTKLEIKR
